The assay deals with human GLP-1 receptor (GLP-1R), stably expressed in FlpIn CHO cells (human) (UniProt P43220).
Sequence of UniProt P43220 (P43220 24-463): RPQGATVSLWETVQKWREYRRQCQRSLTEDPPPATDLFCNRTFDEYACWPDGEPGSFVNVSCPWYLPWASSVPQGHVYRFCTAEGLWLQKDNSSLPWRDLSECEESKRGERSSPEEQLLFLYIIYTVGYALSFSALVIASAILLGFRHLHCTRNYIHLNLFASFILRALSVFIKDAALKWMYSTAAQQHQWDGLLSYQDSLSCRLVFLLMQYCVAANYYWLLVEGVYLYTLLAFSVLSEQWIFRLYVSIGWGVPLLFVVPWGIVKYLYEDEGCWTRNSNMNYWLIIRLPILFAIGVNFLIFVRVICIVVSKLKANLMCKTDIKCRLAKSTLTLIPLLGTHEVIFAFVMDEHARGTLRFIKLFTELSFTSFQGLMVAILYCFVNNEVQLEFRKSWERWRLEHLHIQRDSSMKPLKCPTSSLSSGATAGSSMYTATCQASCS

Substance glucagon-like peptide-1 [GLP-1(7–37)] showed a cAMP accumulation in FlpIn CHO cells stably expressing human GLP-1R, pEC50 of 10.8.

The record behind these values is PMC6860926 (Journal of the American Chemical Society, 2019).
